Laboratory results as given in paper PMC9364715.
Where two headings read alike, the source gives them in different places.

Legend:
[1] = molecular target: Ad5 hexon with DogTag inserted at HVR5, on Ad-DogTag virions (human adenovirus 5 (Ad5)) (UniProt P04133); experiment: SDS-PAGE gel shift
[2] = molecular target: Ad5 hexon with DogTag inserted at HVR5, on Ad-DogTag virions (human adenovirus 5 (Ad5)) (UniProt P04133); experiment: SDS-PAGE gel shift; remark: listed apart in the source

| Substance | percent of hexon covalently coupled (% of hexon protein) [1] | percent of hexon covalently coupled [2] | percent of hexon covalently coupled [1] |
| --- | --- | --- | --- |
| DogCatcher (designed binder) | > 90 |  |  |
| DogCatcher-NANP18 (designed binder) |  | > 90 % of hexon | > 90 % of hexon |
| DogCatcher-NANP9 (designed binder) |  |  | > 90 % of hexon |
